Consider one molecule from publication PMC6688830, “A Ubiquitin-Binding Domain that Binds a Structural Fold Distinct from that of Ubiquitin” (Structure(London, England:1993), 2019).

Conditions in all cases: both partners purified
One assay concerns the target T1, Ubiquitin (UniProt P0CG48 1-76).
T1 construct: ubiquitin, monomeric, the cut product of a ubiquitin precursor; also called mono-Ub; monomeric ubiquitin; source: bought: Boston Biochem (purified recombinant)
The assay can be described thus: ITC; MicroCal ITC200, 10°C; 120 μM SMARCAD1 CUE1 or CUE1,2 in the cell, 9.8 mM mono-Ub in the syringe; 10 mM Tris-HCl pH 7.9, 100 mM NaCl, 5 mM β-ME; One set of sites model. Background: In ITC the heat of successive injections is recorded.

Another assay addresses T2, KAP1 S33-K434 (human, UniProt Q13263 33-434).
T2 construct: KAP1 (TRIM28), human, UniProt Q13263, residues S33-K434 (RBCC domain); The crystal structures of shorter RBCC constructs show an antiparallel homodimer; also called KAP1 RBCC (S33-K434); KAP1 RBCC; source: E. coli BL-21 CodonPlus (DE3)-RP, purified (Ni-NTA, Ulp1, Mono Q)
As to the kind of experiment: ITC; MicroCal ITC200, 20°C; KAP1 RBCC (9-18 μM) in the cell, SMARCAD1 CUE1 or CUE1,2 (90-300 μM) in the syringe; 10 mM Tris-HCl pH 7.9, 100 mM NaCl, 5 mM β-ME; One set of sites model.

Another assay concerns the target T3, KAP1 S33-K434 V380A (human, UniProt Q13263 33-434, V380A).
T3 construct: KAP1 (TRIM28), human, UniProt Q13263, residues S33-K434 (RBCC domain); source: E. coli BL-21 CodonPlus (DE3)-RP, purified (Ni-NTA, Ulp1, Mono Q)
The assay can be described thus: co-IP; purified SMARCAD1 fragments (FLAG-CUE1,2, FLAG-CUE1) and KAP1 RBCC, 9.6μg each in 240μL, 4°C 1 hour; anti-FLAG M2 affinity gel 3 hours.

A further assay deals with T4, KAP1 S33-K434 I379A (human, UniProt Q13263 33-434, I379A).
T4 construct: KAP1 (TRIM28), human, UniProt Q13263, residues S33-K434 (RBCC domain); source: E. coli BL-21 CodonPlus (DE3)-RP, purified (Ni-NTA, Ulp1, Mono Q)
T4 sequence (Q13263 33-434 I379A): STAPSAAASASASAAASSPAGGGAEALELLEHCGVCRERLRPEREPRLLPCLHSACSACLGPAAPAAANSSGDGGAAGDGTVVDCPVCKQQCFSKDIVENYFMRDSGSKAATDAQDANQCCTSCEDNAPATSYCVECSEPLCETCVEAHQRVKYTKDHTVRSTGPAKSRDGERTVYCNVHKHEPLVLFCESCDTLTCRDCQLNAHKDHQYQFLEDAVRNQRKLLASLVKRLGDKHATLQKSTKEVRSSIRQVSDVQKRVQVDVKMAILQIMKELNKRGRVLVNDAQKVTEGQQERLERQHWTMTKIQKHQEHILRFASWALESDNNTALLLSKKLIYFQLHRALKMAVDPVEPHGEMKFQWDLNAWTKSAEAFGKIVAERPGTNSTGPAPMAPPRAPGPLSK
The assay is described as above.

Another assay has as its target T5, KAP1 S33-K434 L376A (human, UniProt Q13263 33-434, L376A).
T5 construct: KAP1 (TRIM28), human, UniProt Q13263, residues S33-K434 (RBCC domain); source: E. coli BL-21 CodonPlus (DE3)-RP, purified (Ni-NTA, Ulp1, Mono Q)
The assay is described as above.

T2 sequence (Q13263 33-434): as the sequence (Q13263 33-434 I379A) above, with A347I counted along it
T5 sequence (Q13263 33-434 L376A): as the sequence (Q13263 33-434 I379A) above, with L344A, A347I counted along it
T3 sequence (Q13263 33-434 V380A): as the sequence (Q13263 33-434 I379A) above, with A347I, V348A counted along it

B1: FLAG-CUE1,2 (WT) (domain or fragment, human, UniProt Q9H4L7 95-347, looked up)
chain: SSDSEDVVSPNCSNTVQEKTFNKDTVIIVSEPSEDEESQGLPTMARRNDDISELEDLSELEDLKDAKLQTLKELFPQRSDNDLLKLIESTSTMDGAIAAALLMFGDAGGGPRKRKLSSSSEPYEEDEFNDDQSIKKTRLDHGEESNESAESSSNWEKQESIVLKLQKEFPNFDKQELREVLKEHEWMYTEALESLKVFAEDQDMQYVSQSEVPNGKEVSSRSQNYPKNATKTKLKQKFSMKAQNGFNKKRKKN
notes: SMARCAD1, human, UniProt Q9H4L7, residues S95-N347 (both CUE domains); also called SMARCAD1 CUE1,2 (S95-N347); wild-type CUE1,2; source: E. coli BL-21 CodonPlus (DE3)-RIL, purified (Ni-NTA, Ulp1, Mono Q if required)
In the case of B1, the results for the Kd in the assay with Ubiquitin and in the assay with KAP1 S33-K434 were around 389 µM and around 0.21 µM, respectively. Moreover, the binding result with KAP1 S33-K434 V380A, in the assay with KAP1 S33-K434 I379A and with KAP1 S33-K434 L376A was “binds” throughout.

A word on the Kd: it is the concentration at which binding is half-saturated. High values mean weaker binding, low ones tighter binding.
